Source: US20090270506A1 (published 2009)

What was measured:
[1] = target: human 2,3-oxidosqualene:lanosterol cyclase with C-terminal myc-epitope and 6xHis-tag (human) (UniProt P48449); experiment: self-association; sedimentation equilibrium AUC at 14,000 rpm, 0.6% C8E5, supernatant at equilibrium
[2] = target: human 2,3-oxidosqualene:lanosterol cyclase with C-terminal myc-epitope and 6xHis-tag (human) (UniProt P48449); experiment: self-association; sedimentation equilibrium AUC at 14,000 rpm, 0.8% β-OG, supernatant at equilibrium
[3] = target: human 2,3-oxidosqualene:lanosterol cyclase with C-terminal myc-epitope and 6xHis-tag (human) (UniProt P48449); experiment: self-association; sedimentation equilibrium AUC at 14,000 rpm, 0.016% DDM, supernatant at equilibrium
[4] = target: human 2,3-oxidosqualene:lanosterol cyclase with C-terminal myc-epitope and 6xHis-tag (human) (UniProt P48449); experiment: self-association; sedimentation equilibrium AUC at 14,000 rpm, 0.06% LDAO, supernatant at equilibrium
[5] = target: human 2,3-oxidosqualene:lanosterol cyclase with C-terminal myc-epitope and 6xHis-tag (human) (UniProt P48449); experiment: self-association; sedimentation equilibrium AUC at 14,000 rpm, 0.2% Triton X-100, supernatant at equilibrium
[6] = target: human 2,3-oxidosqualene:lanosterol cyclase with C-terminal myc-epitope and 6xHis-tag (human) (UniProt P48449); experiment: self-association; sedimentation equilibrium AUC at 14,000 rpm, 0.2% β-OG (below CMC), supernatant at equilibrium
[7] = target: the molecule itself; experiment: sedimentation equilibrium, analytical ultracentrifuge, 0.8% β-OG (self-association)
Description: Sedimentation equilibrium (SE) runs were performed at various speeds at 20° C. with sample volume of 100 μl using an Optima XL-I analytical ultracentrifuge (Beckman-Coulter, Palo Alto). The initial protein concentrations were 0.2-0.6 mg/ml in 20 mM Tris-HCl pH 7.5, 5% glycerol, 1 mM TCEP, 0.8% β-OG and 1 mM MgCl₂ (buffer B). The equilibrium absorbance profiles were recorded after 20 hours at 280 nm.
Analysis of the profiles was performed with the Beckman software package and the Schuck program [sequence] […] All solvent densities matched to the detergent densities by addition of sucrose, or not matched, were measured with a PAAR density meter, type DMA4500 (Anton Paar, Graz, Austria). The detergent densities were assessed in the buffer without protein from separate SE runs where the interference detection optics was used for the non absorbing detergents. […] Because of the sucrose addition the hydration state of the protein has to be considered. […] Thus, this value was used. […] The profiles were analysed by a model with various numbers of bound micelles. […] Thus, the analysis was carried out under this assumption providing a vbar value of 0.791 cm³/g. Similarly, the non-density-matched sample with β-OG under the cmc was analysed with vbar=0746 cm³/g.

B1: human 2,3-oxidosqualene:lanosterol cyclase with C-terminal myc-epitope and 6xHis-tag (enzyme)
chain: TEGTCLRRRGGPYKTEPATDLGRWRLNCERGRQTWTYLQDERAGREQTGLEAYALGLDTKNYFKDLPKAHTAFEGALNGMTFYVGLQAEDGHWTGDYGGPLFLLPGLLITCHVARIPLPAGYREEIVRYLRSVQLPDGGWGLHIEDKSTVFGTALNYVSLRILGVGPDDPDLVRARNILHKKGGAVAIPSWGKFWLAVLNVYSWEGLNTLFPEMWLFPDWAPAHPSTLWCHCRQVYLPMSYCYAVRLSAAEDPLVQSLRQELYVEDFASIDWLAQRNNVAPDELYTPHSWLLRVVYALLNLYEHHHSAHLRQRAVQKLYEHIVADDRFTKSISIGPISKTINMLVRWYVDGPASTAFQEHVSRIPDYLWMGLDGMKMQGTNGSQIWDTAFAIQALLEAGGHHRPEFSSCLQKAHEFLRLSQVPDNPPDYQKYYRQMRKGGFSFSTLDCGWIVSDCTAEALKAVLLLQEKCPHVTEHIPRERLCDAVAVLLNMRNPDGGFATYETKRGGHLLELLNPSEVFGDIMIDYTYVECTSAVMQALKYFHKRFPEHRAAEIRETLTQGLEFCRRQQRADGSWEGSWGVCFTYGTWFGLEAFACMGQTYRDGTACAEVSRACDFLLSRQMADGGWGEDFESCEERRYVQSAQSQIHNTCWAMMGLMAVRHPDIEAQERGVRCLLEKQLPNGDWPQENIAGVFNKSCAISYTSYRNIFPIWALGRFSQLYPERALAGHLEQKLISEEDLNSAVDHHHHHH
monomer [%] [1]: 100%
monomer [%] [2]: 100%
dimer [%] [3]: 23%
monomer [%] [3]: 70%
tetramer [%] [3]: 7%
dimer [%] [4]: 6%
monomer [%] [4]: 94%
monomer [%] [5]: 100%
dimer [%] [6]: 71%
monomer [%] [6]: 0%
tetramer [%] [6]: 18%
trimer [%] [6]: 11%

B2: human 2,3-oxidosqualene:lanosterol cyclase, wild-type without tag (enzyme)
chain: TEGTCLRRRGGPYKTEPATDLGRWRLNCERGRQTWTYLQDERAGREQTGLEAYALGLDTKNYFKDLPKAHTAFEGALNGMTFYVGLQAEDGHWTGDYGGPLFLLPGLLITCHVARIPLPAGYREEIVRYLRSVQLPDGGWGLHIEDKSTVFGTALNYVSLRILGVGPDDPDLVRARNILHKKGGAVAIPSWGKFWLAVLNVYSWEGLNTLFPEMWLFPDWAPAHPSTLWCHCRQVYLPMSYCYAVRLSAAEDPLVQSLRQELYVEDFASIDWLAQRNNVAPDELYTPHSWLLRVVYALLNLYEHHHSAHLRQRAVQKLYEHIVADDRFTKSISIGPISKTINMLVRWYVDGPASTAFQEHVSRIPDYLWMGLDGMKMQGTNGSQIWDTAFAIQALLEAGGHHRPEFSSCLQKAHEFLRLSQVPDNPPDYQKYYRQMRKGGFSFSTLDCGWIVSDCTAEALKAVLLLQEKCPHVTEHIPRERLCDAVAVLLNMRNPDGGFATYETKRGGHLLELLNPSEVFGDIMIDYTYVECTSAVMQALKYFHKRFPEHRAAEIRETLTQGLEFCRRQQRADGSWEGSWGVCFTYGTWFGLEAFACMGQTYRDGTACAEVSRACDFLLSRQMADGGWGEDFESCEERRYVQSAQSQIHNTCWAMMGLMAVRHPDIEAQERGVRCLLEKQLPNGDWPQENIAGVFNKSCAISYTSYRNIFPIWALGRFSQLYPERALAGHP
notes: Expressed in P. pastoris from pPICZB; the whole entry is named; also called hOSC wildtype; hOSC wild-type
binding result [7]: no binding
